From article PMC6232157, “Human adipose glycerol flux is regulated by a pH gate in AQP10” (Nature Communications, 2018) come the findings set out here.

In series [1] the target is His80 (UniProt position 80, NVSGAHLNPAF). Kind of series: kinetics (stopped-flow fluorescence transport assay in intact yeast cells). Conditions: 23 °C; not stated (50 mM K-citrate buffer); 50 mM K-citrate with 1.4 M sorbitol; osmotic shock with 2.1 M glycerol in 50 mM K-citrate; Channel in the yeast plasma membrane, glycerol gradient applied; pH-gated closed (high pH) to open (low pH) transition.

Series [2] concerns the molecule itself. Kind of series: crystal structure; hanging-drop vapor diffusion at 18 °C, 100 mM MES-NaOH pH 6.0, 19 % PEG 2k MME, 5 % glycerol; entire tetramer in the asymmetric unit; 2.3 Å.

In general, pKa refers to the pH at which an ionisable group is half protonated. A high value points to a weaker acid or stronger base. Take “Aquaporin-10 crystallisation construct (hAQP10cryst) (Homo sapiens; del1-10;del278-301)”: the pKa in series [1] turned out to be 6.00 ± 0.13.
“Aquaporin-10 (hAQP10), full length (Homo sapiens)” gave a pKa in series [1] of 5.92 ± 0.20.

B1: human aquaporin 10, crystallized variant hAQP10_(cryst) (domain or fragment, UniProt Q96PS8 11-277, looked up)
chain: MGHLRIRSLLARQCLAEFLGVFVLMLLTQGAVAQAVTSGETKGNFFTMFLAGSLAVTIAIYVGGNVSGAHLNPAFSLAMCIVGRLPWVKLPIYILVQLLSAFCASGATYVLYHDALQNYTGGNLTVTGPKETASIFATYPAPYLSLNNGFLDQVLGTGMLIVGLLAILDRRNKGVPAGLEPVVVGMLILALGLSMGANCGIPLNPARDLGPRLFTYVAGWGPEVFSAGNGWWWVPVVAPLVGATVGTATYQLLVALHHPEGPEPAQD
notes: human aquaglyceroporin AQP10, truncated in the termini (Δ1–10, Δ278–301): the first 10 and the last 24 amino acids removed; codon-optimized cDNA; His8 stretch fused directly to the C-terminus with no protease site; also called human AQP10; source: S. cerevisiae PAP1500, purified (IMAC, SEC); not shown: His8, C-terminal, kept
The stoichiometry N is a count of units in the complex or per binding partner. With B1, the “stoichiometry N” value in series [2] came to 4.
